Measurements as given in article PMC2756588.

B1: unnamed (peptide)
chain: PELAPKREAPKPPAN
B2: unnamed (peptide)
chain: QLLNPNRRAPRRPLS
B3: unnamed (peptide)
chain: LEFRAILFIPKRAPF
B4: unnamed (peptide)
chain: VRTRRRPPPPPIPST
B5: unnamed (peptide)
chain: QPQRTAPKPPISAPR
B6: unnamed (peptide)
chain: STPQTMRQAPKRPDA

target: T1, Bbc1, P47068; experiment: SPOT array; conditions: median of control spots 796
T1 sequence (P47068 1-78, looked up): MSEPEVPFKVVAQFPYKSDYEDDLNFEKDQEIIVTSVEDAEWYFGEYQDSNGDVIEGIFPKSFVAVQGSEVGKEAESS

Binder	SPOT intensity
B1	7
B2	158
B3	22
B4	115
B5	55
B6	8

target: T2, Pin3, Q06449; experiment: SPOT array; conditions: median of control spots 2171
T2 sequence (Q06449 53-122, looked up): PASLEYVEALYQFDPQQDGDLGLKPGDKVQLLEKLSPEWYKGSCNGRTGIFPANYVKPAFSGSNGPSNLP

Binder	SPOT intensity
B1	0
B2	30
B3	68
B4	11
B5	7
B6	192

target: GST; experiment: SPOT array; conditions: median of control spots 978

Binder	SPOT intensity
B1	0
B2	2
B3	0
B4	2
B5	0
B6	1

target: Rvs167, P39743; experiment: SPOT array; conditions: median of control spots 2707
Sequence (P39743 419-482): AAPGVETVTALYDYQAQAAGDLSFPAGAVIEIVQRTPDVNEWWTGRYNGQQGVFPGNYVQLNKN

Binder	SPOT intensity
B1	0
B2	0
B3	0
B4	45
B5	0
B6	0

target: T3, Lsb1, P53281; experiment: SPOT array; conditions: median of control spots 388
T3 sequence (P53281 45-122, looked up): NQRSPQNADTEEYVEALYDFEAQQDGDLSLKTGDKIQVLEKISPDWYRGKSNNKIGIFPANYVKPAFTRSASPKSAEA

Binder	SPOT intensity
B1	0
B2	56
B3	35
B4	171
B5	3
B6	24

target: T4, Boi2, P39969; experiment: SPOT array; conditions: median of control spots 1161
T4 sequence (P39969 32-116, looked up): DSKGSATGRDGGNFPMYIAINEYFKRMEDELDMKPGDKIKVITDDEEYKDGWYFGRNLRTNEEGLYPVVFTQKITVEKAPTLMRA

Binder	SPOT intensity
B1	1
B2	2
B3	4
B4	1
B5	1
B6	1

target: T5, Sla1-2, P32790; experiment: SPOT array; conditions: median of control spots 712
T5 sequence (P32790 60-140, looked up): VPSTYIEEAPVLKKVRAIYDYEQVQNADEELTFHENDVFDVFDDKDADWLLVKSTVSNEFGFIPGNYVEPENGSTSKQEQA

Binder	SPOT intensity
B1	0
B2	3
B3	6
B4	4
B5	0
B6	2

target: T6, Myo5, Q04439; experiment: SPOT array; conditions: median of control spots 471
T6 sequence (Q04439 1072-1160, looked up): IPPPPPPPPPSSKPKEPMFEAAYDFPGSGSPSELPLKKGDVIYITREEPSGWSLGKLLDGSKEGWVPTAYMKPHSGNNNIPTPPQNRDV

Binder	SPOT intensity
B1	262
B2	13
B3	9
B4	188
B5	230
B6	47

target: T7, Bzz1-1, P38822; experiment: SPOT array; conditions: median of control spots 4446
T7 sequence (P38822 478-572, looked up): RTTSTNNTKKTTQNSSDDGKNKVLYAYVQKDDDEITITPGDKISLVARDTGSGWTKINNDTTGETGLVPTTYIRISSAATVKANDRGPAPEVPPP

Binder	SPOT intensity
B1	4
B2	0
B3	0
B4	1720
B5	2
B6	0

target: T8, Bzz1-2, P38822; experiment: SPOT array; conditions: median of control spots 4538
T8 sequence (P38822 568-633, looked up): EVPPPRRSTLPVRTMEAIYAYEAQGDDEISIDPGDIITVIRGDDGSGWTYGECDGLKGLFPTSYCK

Binder	SPOT intensity
B1	4
B2	9
B3	0
B4	4030
B5	2
B6	2

target: T9, Cdc25, P04821; experiment: SPOT array; conditions: median of control spots 969
T9 sequence (P04821 50-136, looked up): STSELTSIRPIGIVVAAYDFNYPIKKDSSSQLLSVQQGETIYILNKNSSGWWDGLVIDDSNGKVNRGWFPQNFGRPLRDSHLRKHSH

Binder	SPOT intensity
B1	0
B2	16
B3	29
B4	0
B5	3
B6	0

target: T10, Boi1, P38041; experiment: SPOT array; conditions: median of control spots 1162
T10 sequence (P38041 1-86, looked up): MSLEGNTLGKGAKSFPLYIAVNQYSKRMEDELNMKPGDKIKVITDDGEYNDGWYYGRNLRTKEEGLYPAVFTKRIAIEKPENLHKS

Binder	SPOT intensity
B1	1
B2	5
B3	10
B4	1
B5	0
B6	0

target: T11, Nbp2, Q12163; experiment: SPOT array; conditions: median of control spots 357
T11 sequence (Q12163 103-180, looked up): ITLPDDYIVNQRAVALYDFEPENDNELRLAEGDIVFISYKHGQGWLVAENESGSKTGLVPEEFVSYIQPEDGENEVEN

Binder	SPOT intensity
B1	281
B2	1130
B3	53
B4	35
B5	276
B6	53

target: T12, Hof1, Q05080; experiment: SPOT array; conditions: median of control spots 4086
T12 sequence (Q05080 590-669, looked up): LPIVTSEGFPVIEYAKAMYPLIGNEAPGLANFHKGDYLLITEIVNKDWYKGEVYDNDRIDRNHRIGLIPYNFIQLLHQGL

Binder	SPOT intensity
B1	0
B2	3
B3	5
B4	6
B5	0
B6	0

target: T13, Abp1, P15891; experiment: SPOT array; conditions: median of control spots 935
T13 sequence (P15891 535-592, looked up): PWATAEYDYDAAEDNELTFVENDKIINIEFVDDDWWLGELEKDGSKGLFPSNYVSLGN

Binder	SPOT intensity
B1	0
B2	125
B3	92
B4	107
B5	42
B6	102

target: Bem1-2, P29366; experiment: SPOT array; conditions: median of control spots 4347
Sequence (P29366 139-227): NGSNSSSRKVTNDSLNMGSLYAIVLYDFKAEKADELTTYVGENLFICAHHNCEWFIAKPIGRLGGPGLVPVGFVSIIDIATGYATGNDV

Binder	SPOT intensity
B1	1
B2	169
B3	1
B4	109
B5	45
B6	2

target: Bem1-1, P29366; experiment: SPOT array; conditions: median of control spots 4282
Sequence (P29366 55-141): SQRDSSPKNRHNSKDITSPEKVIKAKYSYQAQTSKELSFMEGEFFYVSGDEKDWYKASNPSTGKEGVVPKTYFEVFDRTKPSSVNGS

Binder	SPOT intensity
B1	0
B2	0
B3	3
B4	0
B5	0
B6	0

target: T14, Cyk3, Q07533; experiment: SPOT array; conditions: median of control spots 1451
T14 sequence (Q07533 1-83, looked up): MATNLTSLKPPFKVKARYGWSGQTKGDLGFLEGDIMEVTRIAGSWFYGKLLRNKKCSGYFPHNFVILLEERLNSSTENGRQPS

Binder	SPOT intensity
B1	1
B2	1
B3	1
B4	1
B5	0
B6	1

target: T15, Fus1, P11710; experiment: SPOT array; conditions: median of control spots 1200
T15 sequence (P11710 432-512, looked up): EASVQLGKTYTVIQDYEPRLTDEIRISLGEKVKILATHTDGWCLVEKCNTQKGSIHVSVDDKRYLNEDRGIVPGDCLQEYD

Binder	SPOT intensity
B1	0
B2	1
B3	87
B4	0
B5	0
B6	0

target: Myo3, P36006; experiment: SPOT array; conditions: median of control spots 468

Binder	SPOT intensity
B1	497
B2	168
B3	34
B4	296
B5	294
B6	47

target: T16, Lsb4, P32793; experiment: SPOT array; conditions: median of control spots 397
T16 sequence (P32793 402-468, looked up): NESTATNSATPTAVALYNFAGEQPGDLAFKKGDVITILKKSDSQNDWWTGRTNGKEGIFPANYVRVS

Binder	SPOT intensity
B1	2
B2	35
B3	18
B4	39
B5	1
B6	33

target: T17, Hse1, P38753; experiment: SPOT array; conditions: median of control spots 1727
T17 sequence (P38753 208-285, looked up): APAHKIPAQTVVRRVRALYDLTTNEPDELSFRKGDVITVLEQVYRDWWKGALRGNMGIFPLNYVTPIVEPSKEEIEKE

Binder	SPOT intensity
B1	0
B2	20
B3	6
B4	29
B5	0
B6	0

target: Sho1, P40073; experiment: SPOT array; conditions: median of control spots 1148
Sequence (P40073 287-367): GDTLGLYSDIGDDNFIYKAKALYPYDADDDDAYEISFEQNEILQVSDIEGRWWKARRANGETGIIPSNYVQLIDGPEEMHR

Binder	SPOT intensity
B1	0
B2	50
B3	103
B4	46
B5	0
B6	4

target: T18, Sla1-3, P32790; experiment: SPOT array; conditions: median of control spots 5475
T18 sequence (P32790 344-424, looked up): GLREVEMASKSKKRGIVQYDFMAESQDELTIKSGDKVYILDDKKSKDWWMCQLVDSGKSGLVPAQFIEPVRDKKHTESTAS

Binder	SPOT intensity
B1	0
B2	9
B3	8
B4	1790
B5	9
B6	2

target: T19, Pex13, P80667; experiment: SPOT array; conditions: median of control spots 1341
T19 sequence (P80667 295-386, looked up): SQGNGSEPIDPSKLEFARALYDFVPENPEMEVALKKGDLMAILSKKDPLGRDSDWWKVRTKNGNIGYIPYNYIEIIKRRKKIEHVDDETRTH

Binder	SPOT intensity
B1	0
B2	21
B3	59
B4	8
B5	44
B6	116

target: T20, Lsb3, P43603; experiment: SPOT array; conditions: median of control spots 406
T20 sequence (P43603 385-451, looked up): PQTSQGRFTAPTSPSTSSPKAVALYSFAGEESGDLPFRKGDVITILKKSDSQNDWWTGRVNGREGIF

Binder	SPOT intensity
B1	0
B2	43
B3	26
B4	38
B5	2
B6	45

target: T21, Bud14, P27637; experiment: SPOT array; conditions: median of control spots 956
T21 sequence (P27637 247-328, looked up): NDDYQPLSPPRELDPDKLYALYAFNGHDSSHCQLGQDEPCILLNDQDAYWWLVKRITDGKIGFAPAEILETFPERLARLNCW

Binder	SPOT intensity
B1	0
B2	11
B3	13
B4	8
B5	2
B6	0
